In US20160130324A1 (SHIRE HUMAN GENETIC THERAPIES, published 2016):

T1: rhC1s (human, UniProt P09871 16-688)
T1 construct: Enzyme of the colorimetric peptide cleavage assay; Human is read from the printed label 'rhC1s'
T1 sequence (looked up): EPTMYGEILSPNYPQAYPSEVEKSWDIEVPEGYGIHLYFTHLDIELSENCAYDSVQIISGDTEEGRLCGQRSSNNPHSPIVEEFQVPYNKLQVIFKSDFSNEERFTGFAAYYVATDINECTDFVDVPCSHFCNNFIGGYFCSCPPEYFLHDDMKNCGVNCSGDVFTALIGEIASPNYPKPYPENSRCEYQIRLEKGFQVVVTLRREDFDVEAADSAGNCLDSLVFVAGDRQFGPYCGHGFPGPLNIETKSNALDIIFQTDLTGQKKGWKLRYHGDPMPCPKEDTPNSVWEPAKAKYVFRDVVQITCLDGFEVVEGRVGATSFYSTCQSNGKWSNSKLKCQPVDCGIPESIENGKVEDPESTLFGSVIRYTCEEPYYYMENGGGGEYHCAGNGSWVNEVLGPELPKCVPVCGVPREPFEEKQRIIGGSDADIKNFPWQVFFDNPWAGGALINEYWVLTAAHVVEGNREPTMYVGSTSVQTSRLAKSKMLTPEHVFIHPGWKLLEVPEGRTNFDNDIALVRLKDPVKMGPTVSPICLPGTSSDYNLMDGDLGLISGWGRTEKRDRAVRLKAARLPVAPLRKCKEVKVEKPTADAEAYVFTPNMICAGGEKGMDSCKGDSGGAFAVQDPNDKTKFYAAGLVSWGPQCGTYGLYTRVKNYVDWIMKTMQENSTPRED

T2: biotin-C1s
T2 construct: Used in the functional ELISA that measures the C1s/C1-INH complex
T2 sequence (P09871 16-688, species assumed, looked up): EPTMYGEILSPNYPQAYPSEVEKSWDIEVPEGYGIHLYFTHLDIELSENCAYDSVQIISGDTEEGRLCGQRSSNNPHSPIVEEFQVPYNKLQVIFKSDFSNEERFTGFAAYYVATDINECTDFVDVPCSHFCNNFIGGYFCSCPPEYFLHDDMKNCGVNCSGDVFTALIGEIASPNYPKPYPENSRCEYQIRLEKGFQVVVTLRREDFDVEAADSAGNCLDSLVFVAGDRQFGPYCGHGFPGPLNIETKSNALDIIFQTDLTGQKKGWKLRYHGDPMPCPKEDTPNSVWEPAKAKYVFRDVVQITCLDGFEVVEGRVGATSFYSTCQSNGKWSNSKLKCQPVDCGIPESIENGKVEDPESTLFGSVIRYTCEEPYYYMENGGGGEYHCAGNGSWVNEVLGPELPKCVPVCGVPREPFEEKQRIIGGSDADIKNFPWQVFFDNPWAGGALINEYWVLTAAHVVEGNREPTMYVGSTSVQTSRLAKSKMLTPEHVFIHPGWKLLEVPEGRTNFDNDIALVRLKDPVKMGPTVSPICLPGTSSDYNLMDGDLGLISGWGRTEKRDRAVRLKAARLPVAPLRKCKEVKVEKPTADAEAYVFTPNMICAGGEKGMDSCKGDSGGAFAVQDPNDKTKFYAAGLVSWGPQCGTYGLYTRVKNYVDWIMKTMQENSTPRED


How the values were obtained:
[1] = molecular target: T1, rhC1s; assay: inhibition of rhC1s cleavage of a colorimetric peptide substrate, average OD; concentrations from mass spec sizes; C is the midpoint of the 4-parameter fit [panel A]
[2] = molecular target: T1, rhC1s; assay: inhibition of rhC1s cleavage of a colorimetric peptide substrate, average OD; concentrations from gel estimated sizes; C is the midpoint of the 4-parameter fit [panel B]
[3] = molecular target: T1, rhC1s; assay: inhibition of C1s cleavage of a colorimetric peptide substrate, mean OD value; C is the midpoint of the 4-parameter fit
[4] = molecular target: T2, biotin-C1s; assay: functional ELISA of the C1s/C1-INH complex: diluted C1-INH with biotin-C1s, captured on a streptavidin plate, anti-C1-INH-HRP, OD450; C is the midpoint of the 4-parameter fit
Method: This method was used to test the effector dead Fc constructs made for PK studies FIG. 8. The ELISA protocol was as follows: [0334] 60 μL diluted C1-INH+12 μL biotin-C1s [0335] 30 min incubation at RT [0336] Transfer 50 μL of complexes to streptavidin coated plate [0337] 10 min incubation at RT, wash 5× [0338] Add 50 μL of anti-C1-INH-HRP [0339] 60 min incubation at RT, wash 5× [0340] Add 100 μL of TMB substrate [0341] 15 minute incubation at RT [0342] […] Read at OD450

IC50 [1] | IC50 [2] | IC50 [3] | EC50 [4] | Binder
1.76 nM | 1.76 nM | – | – | R&D rhC1inh (other, human, UniProt P05155 23-500, looked up, commercial R&D Systems preparation; also called hSerpin G1 (R&D Systems)) single chain: NPNATSSSSQDPESLQDRGEGKVATTVISKMLFVEPILEVSSLPTTNSTTNSATKITANTTDEPTTQPTTEPTTQPTIQPTQPTTQLPTDSPTQPTTGSFCPGPVTLCSDLESHSTEAVLGDALVDFSLKLYHAFSAMKKVETNMAFSPFSIASLLTQVLLGAGENTKTNLESILSYPKDFTCVHQALKGFTTKGVTSVSQIFHSPDLAIRDTFVNASRTLYSSSPRVLSNNSDANLELINTWVAKNTNNKISRLLDSLPSDTRLVLLNAIYLSAKWKTTFDPKKTRMEPFHFKNSVIKVPMMNSKKYPVAHFIDQTLKAKVGQLQLSHNLSLVILVPQNLKHRLEDMEQALSPSVFKAIMEKLEMSKFQPTLLTLPRIKVTTSQDMLSIMEKLEFFDFSYDLNLCGLTEDPDLQVSAMQHQTVLELTETGVEAAAASAISVARTLLVFEVQQPFLFVLWDQQHKFPVFMGRVYDPRA
– | – | 1.14 nM | – | recombinant C1-INH (other, UniProt P05155 23-500, looked up) NPNATSSSSQDPESLQDRGEGKVATTVISKMLFVEPILEVSSLPTTNSTTNSATKITANTTDEPTTQPTTEPTTQPTIQPTQPTTQLPTDSPTQPTTGSFCPGPVTLCSDLESHSTEAVLGDALVDFSLKLYHAFSAMKKVETNMAFSPFSIASLLTQVLLGAGENTKTNLESILSYPKDFTCVHQALKGFTTKGVTSVSQIFHSPDLAIRDTFVNASRTLYSSSPRVLSNNSDANLELINTWVAKNTNNKISRLLDSLPSDTRLVLLNAIYLSAKWKTTFDPKKTRMEPFHFKNSVIKVPMMNSKKYPVAHFIDQTLKAKVGQLQLSHNLSLVILVPQNLKHRLEDMEQALSPSVFKAIMEKLEMSKFQPTLLTLPRIKVTTSQDMLSIMEKLEFFDFSYDLNLCGLTEDPDLQVSAMQHQTVLELTETGVEAAAASAISVARTLLVFEVQQPFLFVLWDQQHKFPVFMGRVYDPRA
2.01 nM | 2.01 nM | 1.83 nM | 4.58 nM | plasma-derived C1-INH (other, Purified from plasma and glycosylated) NPNATSSSSQDPESLQDRGEGKVATTVISKMLFVEPILEVSSLPTTNSTTNSATKITANTTDEPTTQPTTEPTTQPTIQPTQPTTQLPTDSPTQPTTGSFCPGPVTLCSDLESHSTEAVLGDALVDFSLKLYHAFSAMKKVETNMAFSPFSIASLLTQVLLGAGENTKTNLESILSYPKDFTCVHQALKGFTTKGVTSVSQIFHSPDLAIRDTFVNASRTLYSSSPRVLSNNSDANLELINTWVAKNTNNKISRLLDSLPSDTRLVLLNAIYLSAKWKTTFDPKKTRMEPFHFKNSVIKVPMMNSKKYPVAHFIDQTLKAKVGQLQLSHNLSLVILVPQNLKHRLEDMEQALSPSVFKAIMEKLEMSKFQPTLLTLPRIKVTTSQDMLSIMEKLEFFDFSYDLNLCGLTEDPDLQVSAMQHQTVLELTETGVEAAAASAISVARTLLVFEVQQPFLFVLWDQQHKFPVFMGRVYDPRA
